According to patent US20240025993A1, “CD19 BINDING MOLECULES AND USES THEREOF” (NOVARTIS AG, priority 2020, published 2024):

Columns and labels:
[1] = system: T cells co-cultured with OCI-LY-19, Karpas422 or Toledo target cells; test: TBM and BBM mediated T cell proliferation (Example 20); assay type: cell-based, human; settings: OCI-LY-19, Karpas422, Toledo co-culture; E:T 1:3, 96 hrs, 2.5 nM-0.0006 nM; H variants
Protocol: Briefly, OCI-LY-19, Karpas422, and Toledo target cells stably expressing firefly luciferase were plated in a 96 well plate in T Cell Media (TCM) (RPMI-1640, ThermoFisher Scientific, Cat #11875-085), 10% FBS (Seradigm, Cat #1500-500), 1% L-Glutamine (Thermo Fisher Scientific, Cat #25830-081), 1% Non Essential Amino Acids (Thermo Fisher Scientific, Cat #11140-050),1% Pen/Strep (Thermo Fisher Scientific, Cat #15070063), 1% HEPES (Thermo Fisher Scientific, Cat #15630080), Sodium Pyruvate (Thermo Fisher Scientific, Cat #11360-070), 0.1% Beta-mercaptoethanol (Thermo Fisher Scientific, Cat #21985-023)]. PBMCs previously isolated and cryopreserved from 2 Leukopak donors were thawed and Pan T cells were isolated (as described earlier). Isolated T cells were labelled with 5 μM Cell Trace Violet (CTV) (Thermo Fisher Scientific, Cat #C34557) following the manufacturer's protocol and were co-cultured with target cells at an E:T ratio of 1:3. A dilution series of CD3med TSP1, CD3hi TSP1, CD3hi BSP1, CD3hi TSP1C, and blinatumomab ranging from 2.5 nM-0.0006 nM was added to cells and the plates were incubated in a 5% CO2, 37° C. incubator for 96 hrs. […]

human FcγR1A = human FcγR1A (Homo sapiens, UniProt P12314); test: SPR binding of Fc modified anti-CD3 IgG1 antibodies (Example 34); settings: anti-CD3 IgG1 antibody immobilized
Protocol: Surface plasmon resonance (SPR) experiments were performed to analyze the interaction of human activating receptors FcγR1A, FcγR3A (V158) and human C1q with IgG1 WT and antibody-Fc variants. Binding kinetics and their relative binding affinities were explored. The binding affinity is an important characteristic of an interaction between an antibody and an antigen. The equilibrium dissociation constant (KD) defines how strong the interaction is and therefore how much antibody-antigen complex is formed at equilibrium.
The knowledge of the antibody characteristics is not only essential during selection of the best therapeutic antibody candidate, but also important to understand the in vivo behavior and potentially predict cellular immune responses. […] Binding to human C1q was evaluated. […] SPR measurements were measured on a Biacore T200 (GE-Healthcare Life Sciences) controlled by Biacore T200 control software version 2.0.1. […]
The antibodies were covalently immobilized on a CM5 sensor chip whereas Fc gamma receptors or human C1q served as analytes in solution (FIG. 38). […] Zero concentration samples (blank runs) were measured for both methods to allow double-referencing during data evaluation.
Data were evaluated using the Biacore T200 evaluation software. […] In addition, the maximum response reached during the experiment was monitored. […]

[2] = Differential scanning calorimetry, melting temperature of Fc modified anti-CD3 antibodies (Example 35); assay type: physicochemical; settings: DSC, 1 mg/ml in PBS pH 7.4, anti-CD3 IgG1 Fc variants
Protocol: Calorimetric measurements were carried out on a differential scanning micro calorimeter (Nano DSC, TA instruments). The cell volume was 0.5 ml and the heating rate was 1° C./min. All proteins were used at a concentration of 1 mg/m in PBS (pH 7.4). The molar heat capacity of each protein was estimated by comparison with duplicate samples containing identical buffer from which the protein had been omitted. The partial molar heat capacities and melting curves were analyzed using standard procedure. Thermograms were baseline corrected and concentration normalized.

[3] = Aggregation propensity (% HMW) by analytical SEC of IgG1 anti-CD3 antibody and Fc variants (Example 35); assay type: physicochemical; settings: PBS pH 7.4, anti-CD3 antibodies
Protocol: Size exclusion chromatography measurements were performed to evaluate the aggregation propensity (% HMW) of IgG1 antibody and Fc modified derivatives. The produced and purified anti CD3 antibodies were applied to an analytical size exclusion chromatography column (SEC 200, GE Healthcare), equilibrated with PBS buffer pH 7.4.

[4] = system: Jurkat NFAT luciferized (JNL) cells with THP-1 cells; test: Anti-CD3 NFAT signalling assay, JNL + THP-1 cells (Example 36); assay type: cell-based, human; settings: THP-1 cells preincubated with IFNg (100 u/mL, 48 hours)
Protocol: Jurkat reporter gene assay (RGA) for the nuclear factor of activated T-cells (NFAT) pathway was performed using Jurkat NFAT luciferized (JNL) cells and THP-1 cells (ATCC, TIB202). THP-1 cells express FcγRI, FcγRII, and FcγRIII. Cells were co-incubated for 6 hours at 37° C., 5% CO2 at a 5:1 effector to tumor ratio with each sample at the various concentrations depicted. An equal volume of ONE-Glo™ reagent (Promega, E6110) was added to the culture volume. Plate was shaken for 2 minutes, then incubated for an additional 8 minutes protected from light. For JNL+ THP+IFNg experiment, THP-1 cells were pre-treated with 100 u/mL IFNg for 48 hours at 37° C., 5% CO2 before co-culture. IFNg stimulation increases FcγRI expression. Luciferase activity was quantitated on the EnVision plate reader (PerkinElmer). Data was analyzed and fit to a 5 parameter-logistic curve using GraphPad Prism.

Chain of human FcγR1A (P12314 16-374): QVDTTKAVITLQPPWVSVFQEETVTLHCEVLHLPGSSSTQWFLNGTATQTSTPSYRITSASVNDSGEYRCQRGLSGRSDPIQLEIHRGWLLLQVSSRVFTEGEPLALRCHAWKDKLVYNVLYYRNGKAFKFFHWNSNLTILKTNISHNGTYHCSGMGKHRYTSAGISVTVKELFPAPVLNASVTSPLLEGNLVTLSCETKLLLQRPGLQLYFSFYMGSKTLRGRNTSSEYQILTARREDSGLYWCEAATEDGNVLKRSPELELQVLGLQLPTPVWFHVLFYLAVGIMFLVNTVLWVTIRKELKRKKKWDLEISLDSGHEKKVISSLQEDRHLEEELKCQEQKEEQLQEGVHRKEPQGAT

B1: CD3hi TSP1C: TBM corresponding to CD3hi TSP1 but with a lysozyme binding arm in place of the CD19 binding arm; control antibody (antibody)
heavy: QVQLQQSGPGLVKPSQTLSLTCAISGDSVSSNSAAWSWIRQSPGRGLEWLGRIYYRSKWYNDYAVSVKSRITINPDTSKNQFSLQLNSVTPEDTAVYYCARLDHRYHEDTVYPGMDVWGQGTLVTVSSASTKGPSVFPLAPSSKSTSGGTAALGCLVKDYFPEPVTVSWNSGALTSGVHTFPAVLQSSGLYSLSSVVTVPSSSLGTQTYICNVNHKPSNTKVDKRVEPKSCGGGGSGGGGSEVQLVESGGGLVQPGGSLKLSCAASGFTFNTYAMNWVRQASGKGLEWVGRIRSKYNNYATYYADSVKDRFTISRDDSKSTLYLQMNSLKTEDTAVYYCVRHGNFGNSYVSWFAYWGQGTLVTVSSGGGGSGGGGSGGGGSGGGGSQAVVTQEPSLTVSPGGTVTLTCRSSTGAVTTSNYANWVQQKPGQAPRGLIGGTNKRAPWTPARFSGSLLGDKAALTLSGAQPEDEAEYFCALWYSNLWVFGGGTKLTVLGGGGSDKTHTCPPCPAPELLGGPSVFLFPPKPKDTLMISRTPEVTCVVVAVSHEDPEVKFNWYVDGVEVHNAKTKPREEQYASTYRVVSVLTVLHQDWLNGKEYKCKVSNKALAAPIEKTISKAKGQPREPQVCTLPPSREEMTKNQVSLSCAVKGFYPSDIAVEWESNGQPENNYKTTPPVLDSDGSFFLVSKLTVDKSRWQQGNVFSCSVMHEALHNHYTQKSLSLSPGK
light: DIELTQPPSVSVAPGQTARISCSGDNLPAYTVTWYQQKPGQAPVLVIYDDSDRPSGIPERFSGSNSGNTATLTISGTQAEDEADYYCASWDPSSGVVFGGGTKLTVLGQPKAAPSVTLFPPSSEELQANKATLVCLISDFYPGAVTVAWKADSSPVKAGVETTTPSKQSNNKYAASSYLSLTPEQWKSHRSYSCQVTHEGSTVEKTVAPTECS
chain: SQQIYGVVYGNVTFHVPSNVPLKEVLWKKQKDKVAELENSEFRAFSSFKNRVYLDTVSGSLTIYNLTSSDEDEYEMESPNITDTMKFFLYVLESGGGGSDKTHTCPPCPAPELLGGPSVFLFPPKPKDTLMISRTPEVTCVVVAVSHEDPEVKFNWYVDGVEVHNAKTKPREEQYASTYRVVSVLTVLHQDWLNGKEYKCKVSNKALAAPIEKTISKAKGQPREPQVYTLPPCREEMTKNQVSLWCLVKGFYPSDIAVEWESNGQPENNYKTTPPVLDSDGSFFLYSKLTVDKSRWQQGNVFSCSVMHEALHNHYTQKSLSLSPGK
T cell proliferation (% proliferated CD3+ T cells) [1]: did not induce any T cell proliferation

B2: GADAPA-IgG1: anti-CD3 IgG1 with G237A/D265A/P329A (antibody)
heavy: EVQLVESGGGLVQPGGSLKLSCAASGFTFNTYAMNWVRQASGKGLEWVGRIRSKYNNYATYYADSVKDRFTISRDDSKSTLYLQMNSLKTEDTAVYYCVRHGNFGNSYVSWFAYWGQGTLVTVSSASTKGPSVFPLAPSSKSTSGGTAALGCLVKDYFPEPVTVSWNSGALTSGVHTFPAVLQSSGLYSLSSVVTVPSSSLGTQTYICNVNHKPSNTKVDKRVEPKSCDKTHTCPPCPAPELLGAPSVFLFPPKPKDTLMISRTPEVTCVVVAVSHEDPEVKFNWYVDGVEVHNAKTKPREEQYNSTYRVVSVLTVLHQDWLNGKEYKCKVSNKALAAPIEKTISKAKGQPREPQVYTLPPSRDELTKNQVSLTCLVKGFYPSDIAVEWESNGQPENNYKTTPPVLDSDGSFFLYSKLTVDKSRWQQGNVFSCSVMHEALHNHYTQKSLSLSPGK
light: QAVVTQEPSLTVSPGGTVTLTCRSSTGAVTTSNYANWVQQKPGQAPRGLIGGTNKRAPWTPARFSGSLLGDKAALTLSGAQPEDEAEYFCALWYSNLWVFGGGTKLTVLGQPKAAPSVTLFPPSSEELQANKATLVCLISDFYPGAVTVAWKADSSPVKAGVETTTPSKQSNNKYAASSYLSLTPEQWKSHRSYSCQVTHEGSTVEKTVAPTECS
Maximum response at 100 nM hFcgammaRIA (RU) (human FcγR1A): 16 RU | Melting temperature (Tm) of CH2 domain [2]: 65 °C | (%) higher molecular weight [3]: 8.0% | NFAT activity (T-cell activation) [4]: some activity remaining
